{"source": "IntAct's records for PubMed 21896273", "parents": {"B1": {"name": "Signal peptide peptidase-like 2A (Mus musculus), Q9JJF9 (parent)", "chain": "MGLLHSLHAPAAALLWSCLLGLAAAQEAILHASTNGVSSLSKDYCMYYNNNWTRLPSSLENATSLSLMNLTGTALCHLSDIPPDGIRNKAVVVHWGPCHFLEKARIAQEGGAAALLIANNSVLIPSSRNKSTFQNVTVLIAVITQKDFKDMKETLGDDITVKMYSPSWPNFDYTLVVIFVIAVFTVALGGYWSGLIELENMKSVEDAEDRETRKKKDDYLTFSPLTVVVFVVICCIMIVLLYFFYRWLVYVMIAIFCIASSMSLYNCLSALIHRMPCGQCTILCCGKNIKVSLIFLSGLCISVAVVWAVFRNEDRWAWILQDILGIAFCLNLIKTMKLPNFMSCVILLGLLLIYDVFFVFITPFITKNGESIMVELAAGPFENAEKLPVVIRVPKLMGYSVMSVCSVPVSVLGFGDIIVPGLLIAYCRRFDVQTGSSIYYISSTIAYAVGMIITFVVLMVMKTGQPALLYLVPCTLITVSVVAWSRKEMKKFWKGSSYQVMDHLDYSTNEENPVTTDEQIVQQ"}}}
{"variants_of": "B1", "conditions": "with lamp2_human LAMP2, P13473"}
{"variant": "MGLLHSLHAPAAALLWSCLLGLAAAQEAILHASTNGVSSLSKDYCMYYNNNWTRLPSSLENATSLSLMNLTGTALCHLSDIPPDGIRNKAVVVHWGPCHFLEKARIAQEGGAAALLIANNSVLIPSSRNKSTFQNVTVLIAVITQKDFKDMKETLGDDITVKMYSPSWPNFDYTLVVIFVIAVFTVALGGYWSGLIELENMKSVEDAEDRETRKKKDDYLTFSPLTVVVFVVICCIMIVLLYFFYRWLVYVMIAIFCIASSMSLYNCLSALIHRMPCGQCTILCCGKNIKVSLIFLSGLCISVAVVWAVFRNEDRWAWILQDILGIAFCLNLIKTMKLPNFMSCVILLGLLLIYDVFFVFITPFITKNGESIMVELAAGPFENAEKLPVVIRVPKLMGYSVMSVCSVPVSVLGFGDIIVPGLLIAYCRRFDVQTGSSIYYISSTIAYAVGMIITFVVLMVMKTGQPALLYLVPCTLITVSVVAWSRKEMKKFWKGSSAQVMDHLDYSTNEENPVTTDEQIVQQ", "note": "[Y498A]", "effect of a mutation on the interaction": "disrupting interaction"}
{"variants_of": "B1", "conditions": "with lamp2_human LAMP2, P13473", "remark": "another data set of the same source"}
{"variant": "MGLLHSLHAPAAALLWSCLLGLAAAQEAILHASTNGVSSLSKDYCMYYNNNWTRLPSSLENATSLSLMNLTGTALCHLSDIPPDGIRNKAVVVHWGPCHFLEKARIAQEGGAAALLIANNSVLIPSSRNKSTFQNVTVLIAVITQKDFKDMKETLGDDITVKMYSPSWPNFDYTLVVIFVIAVFTVALGGYWSGLIELENMKSVEDAEDRETRKKKDDYLTFSPLTVVVFVVICCIMIVLLYFFYRWLVYVMIAIFCIASSMSLYNCLSALIHRMPCGQCTILCCGKNIKVSLIFLSGLCISVAVVWAVFRNEDRWAWILQDILGIAFCLNLIKTMKLPNFMSCVILLGLLLIYDVFFVFITPFITKNGESIMVELAAGPFENAEKLPVVIRVPKLMGYSVMSVCSVPVSVLGFGDIIVPGLLIAYCRRFDVQTGSSIYYISSTIAYAVGMIITFVVLMVMKTGQPALLYLVPCTLITVSVVAWSRKEMKKFWKGSSYQVMDHLDASTNEENPVTTDEQIVQQ", "note": "[Y506A]", "effect of a mutation on the interaction": "disrupting interaction"}
